Patent publication US20150322129A1 (Sanofi, published 2015)
Numbered stars: 1 amine (or outer) side, 2 acyl side, 3 side chain; on linkers, the order of the positions; unused ones are H or OH. Square brackets hold non-standard residues; d marks the D form. Side chains are listed from the residue outwards. Ends that are not written are not given here. * marks the point of attachment. γGlu = O=C(O)[C@H](CCC(=O)[*:2])N[*:1]; Stearoyl = CCCCCCCCCCCCCCCCCC(=O)*; Palmitoyl = CCCCCCCCCCCCCCCC(=O)*; Aib = CC(C)(N)C(=O)O

T1: human GIP receptor (human, UniProt P48546 22-466)
T1 sequence (looked up): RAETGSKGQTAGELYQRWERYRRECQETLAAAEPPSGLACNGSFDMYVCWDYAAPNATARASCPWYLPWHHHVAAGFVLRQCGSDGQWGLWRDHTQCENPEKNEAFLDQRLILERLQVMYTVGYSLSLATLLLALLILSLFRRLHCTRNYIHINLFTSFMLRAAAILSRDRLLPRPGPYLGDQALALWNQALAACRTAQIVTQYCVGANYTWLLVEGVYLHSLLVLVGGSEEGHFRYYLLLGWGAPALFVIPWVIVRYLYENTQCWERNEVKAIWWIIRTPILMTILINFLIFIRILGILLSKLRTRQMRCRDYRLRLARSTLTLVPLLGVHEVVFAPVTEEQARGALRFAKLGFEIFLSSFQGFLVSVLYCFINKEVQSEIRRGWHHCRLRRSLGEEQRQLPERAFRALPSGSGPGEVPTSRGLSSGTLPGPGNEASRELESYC

B1: SEQ ID NO: 25 (peptide)
peptide: H-H[dS]HGTFTSDLSKQK([γGlu-Stearoyl])EEEAVRLFIEWLKAGGPSSGAPPPS-NH2
SMILES: CCCCCCCCCCCCCCCCCC(=O)N[C@@H](CCC(=O)NCCCC[C@H](NC(=O)[C@H](CCC(N)=O)NC(=O)[C@H](CCCCN)NC(=O)[C@H](CO)NC(=O)[C@H](CC(C)C)NC(=O)[C@H](CC(=O)O)NC(=O)[C@H](CO)NC(=O)[C@@H](NC(=O)[C@H](Cc1ccccc1)NC(=O)[C@@H](NC(=O)CNC(=O)[C@H](Cc1c[nH]cn1)NC(=O)[C@@H](CO)NC(=O)[C@@H](N)Cc1c[nH]cn1)[C@@H](C)O)[C@@H](C)O)C(=O)N[C@@H](CCC(=O)O)C(=O)N[C@@H](CCC(=O)O)C(=O)N[C@@H](CCC(=O)O)C(=O)N[C@@H](C)C(=O)N[C@H](C(=O)N[C@@H](CCCNC(=N)N)C(=O)N[C@@H](CC(C)C)C(=O)N[C@@H](Cc1ccccc1)C(=O)N[C@H](C(=O)N[C@@H](CCC(=O)O)C(=O)N[C@@H](Cc1c[nH]c2ccccc12)C(=O)N[C@@H](CC(C)C)C(=O)N[C@@H](CCCCN)C(=O)N[C@@H](C)C(=O)NCC(=O)NCC(=O)N1CCC[C@H]1C(=O)N[C@@H](CO)C(=O)N[C@@H](CO)C(=O)NCC(=O)N[C@@H](C)C(=O)N1CCC[C@H]1C(=O)N1CCC[C@H]1C(=O)N1CCC[C@H]1C(=O)N[C@@H](CO)C(N)=O)[C@@H](C)CC)C(C)C)C(=O)O

The binders below were run against T2, human glucagon receptor (human, UniProt P47871 26-477) (assay: cell-based or functional assay).
T2 sequence (P47871 26-477): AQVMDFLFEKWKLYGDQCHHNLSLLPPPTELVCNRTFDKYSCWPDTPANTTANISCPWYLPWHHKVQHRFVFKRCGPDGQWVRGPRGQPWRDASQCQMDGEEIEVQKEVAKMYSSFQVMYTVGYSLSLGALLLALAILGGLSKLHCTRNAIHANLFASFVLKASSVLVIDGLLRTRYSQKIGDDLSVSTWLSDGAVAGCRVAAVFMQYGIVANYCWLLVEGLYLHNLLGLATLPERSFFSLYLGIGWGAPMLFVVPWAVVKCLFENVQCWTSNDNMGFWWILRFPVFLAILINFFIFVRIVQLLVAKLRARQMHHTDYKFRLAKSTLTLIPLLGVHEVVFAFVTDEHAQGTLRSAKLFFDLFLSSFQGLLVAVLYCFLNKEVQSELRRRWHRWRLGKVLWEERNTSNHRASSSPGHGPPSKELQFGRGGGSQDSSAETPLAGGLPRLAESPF

| Binder | EC50 hGlucagon-R (cAMP formation) [nM] |
| --- | --- |
| H[dS]HGTFTSDLSKQK([γGlu-Palmitoyl])EEEAVRLFIEWLKAGGPSSGAPPPS-NH2 [SEQ ID NO: 14] | 0.0584 |
| H[Aib]HGTFTSDLSKQK([γGlu-Stearoyl])EEEAVRLFIEWLKAGGPSSGAPPPS-NH2 [SEQ ID NO: 7] | 0.0058 |
| B1 | 0.0399 |
| H[dS]HGTFTSDLSKQK([γGlu-γGlu-Palmitoyl])EEEAVRLFIEWLKAGGPSSGAPPPS-NH2 [SEQ ID NO: 13] | 0.0225 |
| H[Aib]HGTFTSDLSKQK([γGlu-γGlu-Palmitoyl])EEEAVRLFIEWLKAGGPSSGAPPPS-NH2 [SEQ ID NO: 11] | 0.0089 |
| H[Aib]HGTFTSDLSKQK([γGlu-Palmitoyl])EEEAVRLFIEWLKAGGPSSGAPPPS-NH2 [SEQ ID NO: 12] | 0.0128 |

These binders were tested against T1, human GIP receptor (assay: cell-based or functional assay).

| Binder | EC50 hGIP-R (cAMP formation) [nM] |
| --- | --- |
| H[dS]HGTFTSDLSKQK([γGlu-Palmitoyl])EEEAVRLFIEWLKAGGPSSGAPPPS-NH2 [SEQ ID NO: 14] | 0.437 |
| H[Aib]HGTFTSDLSKQK([γGlu-Stearoyl])EEEAVRLFIEWLKAGGPSSGAPPPS-NH2 [SEQ ID NO: 7] | 0.0256 |
| B1 | 0.407 |
| H[dS]HGTFTSDLSKQK([γGlu-γGlu-Palmitoyl])EEEAVRLFIEWLKAGGPSSGAPPPS-NH2 [SEQ ID NO: 13] | 0.079 |
| H[Aib]HGTFTSDLSKQK([γGlu-γGlu-Palmitoyl])EEEAVRLFIEWLKAGGPSSGAPPPS-NH2 [SEQ ID NO: 11] | 0.0079 |
| H[Aib]HGTFTSDLSKQK([γGlu-Palmitoyl])EEEAVRLFIEWLKAGGPSSGAPPPS-NH2 [SEQ ID NO: 12] | 0.0088 |

Each binder was assayed against T3, human GLP-1 receptor (human, UniProt P43220 24-463) (assay: cell-based or functional assay).

| Binder | EC50 hGLP-1R (cAMP formation) [nM] |
| --- | --- |
| H[dS]HGTFTSDLSKQK([γGlu-Palmitoyl])EEEAVRLFIEWLKAGGPSSGAPPPS-NH2 [SEQ ID NO: 14] | 0.0041 |
| H[Aib]HGTFTSDLSKQK([γGlu-Stearoyl])EEEAVRLFIEWLKAGGPSSGAPPPS-NH2 [SEQ ID NO: 7] | 0.0065 |
| B1 | 0.0081 |
| H[Aib]HGTFTSDLSKQK([γGlu-Palmitoyl])EEEAVRLFIEWLKAGGPSSGAPPPS-NH2 [SEQ ID NO: 12] | 0.0033 |

Molecular target: T2, human glucagon receptor
Test: cell-based or functional assay
Remark: another data set of the same source

| Binder | EC50 hGlucagon-R (cAMP formation) [nM] |
| --- | --- |
| H[dS]HGTFTSDLSKQK([γGlu-Palmitoyl])EEEAVRLFIEWLKAGGPSSGAPPPS-NH2 [SEQ ID NO: 14] | 0.0584 |
| H[Aib]HGTFTSDLSKQK([γGlu-Stearoyl])EEEAVRLFIEWLKAGGPSSGAPPPS-NH2 [SEQ ID NO: 7] | 0.0058 |
| B1 | 0.0399 |
| H[dS]HGTFTSDLSKQK([γGlu-γGlu-Palmitoyl])EEEAVRLFIEWLKAGGPSSGAPPPS-NH2 [SEQ ID NO: 13] | 0.0225 |
| H[dS]HGTFTSDLSKQK(Ac)EEEAVRLFIEWLKAGGPSSGAPPPS-NH2 [SEQ ID NO: 35] | 2.86 |
| H[Aib]HGTFTSDLSKQK([γGlu-γGlu-Palmitoyl])EEEAVRLFIEWLKAGGPSSGAPPPS-NH2 [SEQ ID NO: 11] | 0.0089 |
| H[Aib]HGTFTSDLSKQK([γGlu-Palmitoyl])EEEAVRLFIEWLKAGGPSSGAPPPS-NH2 [SEQ ID NO: 12] | 0.0128 |
| H-H[Aib]HGTFTSDLSKQK(Ac)EEEAVRLFIEWLKAGGPSSGAPPPS-NH2 [SEQ ID NO: 34] | 0.829 |

Molecular target: T1, human GIP receptor
Test: cell-based or functional assay
Remark: another data set of the same source

| Binder | EC50 hGIP-1 (cAMP formation) [nM] |
| --- | --- |
| H[dS]HGTFTSDLSKQK([γGlu-Palmitoyl])EEEAVRLFIEWLKAGGPSSGAPPPS-NH2 [SEQ ID NO: 14] | 0.437 |
| H[Aib]HGTFTSDLSKQK([γGlu-Stearoyl])EEEAVRLFIEWLKAGGPSSGAPPPS-NH2 [SEQ ID NO: 7] | 0.0256 |
| B1 | 0.407 |
| H[dS]HGTFTSDLSKQK([γGlu-γGlu-Palmitoyl])EEEAVRLFIEWLKAGGPSSGAPPPS-NH2 [SEQ ID NO: 13] | 0.079 |
| H[dS]HGTFTSDLSKQK(Ac)EEEAVRLFIEWLKAGGPSSGAPPPS-NH2 [SEQ ID NO: 35] | 4.04 |
| H[Aib]HGTFTSDLSKQK([γGlu-γGlu-Palmitoyl])EEEAVRLFIEWLKAGGPSSGAPPPS-NH2 [SEQ ID NO: 11] | 0.0079 |
| H[Aib]HGTFTSDLSKQK([γGlu-Palmitoyl])EEEAVRLFIEWLKAGGPSSGAPPPS-NH2 [SEQ ID NO: 12] | 0.0088 |
| H-H[Aib]HGTFTSDLSKQK(Ac)EEEAVRLFIEWLKAGGPSSGAPPPS-NH2 [SEQ ID NO: 34] | 0.0254 |

Molecular target: T3, human GLP-1 receptor
Test: cell-based or functional assay
Remark: another data set of the same source

| Binder | EC50 hGLP-1R (cAMP formation) [nM] |
| --- | --- |
| H[dS]HGTFTSDLSKQK([γGlu-Palmitoyl])EEEAVRLFIEWLKAGGPSSGAPPPS-NH2 [SEQ ID NO: 14] | 0.0041 |
| H[Aib]HGTFTSDLSKQK([γGlu-Stearoyl])EEEAVRLFIEWLKAGGPSSGAPPPS-NH2 [SEQ ID NO: 7] | 0.0065 |
| B1 | 0.0081 |
| H[dS]HGTFTSDLSKQK(Ac)EEEAVRLFIEWLKAGGPSSGAPPPS-NH2 [SEQ ID NO: 35] | 0.0004 |
| H[Aib]HGTFTSDLSKQK([γGlu-Palmitoyl])EEEAVRLFIEWLKAGGPSSGAPPPS-NH2 [SEQ ID NO: 12] | 0.0033 |
| H-H[Aib]HGTFTSDLSKQK(Ac)EEEAVRLFIEWLKAGGPSSGAPPPS-NH2 [SEQ ID NO: 34] | 0.0007 |
